Source: FireProtDB (doi:10.1021/acs.biochem.5b01204)
“And” between values parts separate entries of the source, which are not always exact repeats. Identical values can stand only once.

Conditions: Enterobacteria phage T4, pH 7.4, Sodium Phosphate Buffer, whole UniProt chain shown; for denaturant midpoint (higher = more stable): 25 °C, Urea

B1: Sliding clamp wild type, P04525 (protein)
chain: MKLSKDTTALLKNFATINSGIMLKSGQFIMTRAVNGTTYAEANISDVIDFDVAIYDLNGFLGILSLVNDDAEISQSEDGNIKIADARSTIFWPAADPSTVVAPNKPIPFPVASAVTEIKAEDLQQLLRVSRGLQIDTIAITVKEGKIVINGFNKVEDSALTRVKYSLTLGDYDGENTFNFIINMANMKMQPGNYKLLLWAKGKQGAAKFEGEHANYVVALEADSTHDF
denaturant midpoint (higher = more stable) (CD, transition: 3, reversible: yes): 2.6 M and 5.7 M
denaturant midpoint (higher = more stable) (CD): 5.8 M and 2.5 M
denaturant midpoint (higher = more stable) (fluorescence, transition: 3, reversible: yes): 2.7 M and 5.7 M
denaturant midpoint (higher = more stable) (fluorescence): 5.9 M
Tm (Thermal, DSC, reversible: no): 52.3 °C
unfolding enthalpy (calorimetric) (Thermal, DSC, reversible: no): 350 kJ/mol
unfolding enthalpy (van 't Hoff) (Thermal, DSC, reversible: no): 1080 kJ/mol
